According to patent US20050282743A1, “Molecular interactions in cells” (Arbor Vita Corporation, priority 2001, published 2005):

Assays:
[1] = biological target: GST-KIAA807 [GST: P08515]; assay: G' assay; note: key of the grades not given here
[2] = biological target: T1, GST-KIAA0807(S) PDZ domain 1 (Homo sapiens (Human)), Q6P0Q8; assay: G' assay; note: key of the grades not given here
T1 chain: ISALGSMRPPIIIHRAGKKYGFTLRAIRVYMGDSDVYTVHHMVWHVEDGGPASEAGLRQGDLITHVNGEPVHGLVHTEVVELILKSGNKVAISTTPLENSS

[3] = biological target: GST-BAI-1 Associated Protein PDZ domain 5 (Homo sapiens (Human)), Q96QZ7; assay: G' assay; note: key of the grades not given here
Sequence of GST-BAI-1 Associated Protein PDZ domain 5 (Homo sapiens (Human)), Q96QZ7 (Q96QZ7 988-1099): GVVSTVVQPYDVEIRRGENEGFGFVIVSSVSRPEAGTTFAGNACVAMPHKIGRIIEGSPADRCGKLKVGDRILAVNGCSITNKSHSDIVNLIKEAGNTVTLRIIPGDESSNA

[4] = biological target: T2, GST-Outer Membrane PDZ domain 1 (Homo sapiens (Human)), P57105; assay: G' assay; note: key of the grades not given here
T2 chain: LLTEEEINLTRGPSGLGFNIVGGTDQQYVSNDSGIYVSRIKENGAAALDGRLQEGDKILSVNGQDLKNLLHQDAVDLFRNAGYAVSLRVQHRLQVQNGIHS

[5] = biological target: T3, GST-TIP1 PDZ domain 1 (Table 9 insert) (Homo sapiens (Human)), O14907; assay: G' assay; note: key of the grades not given here
T3 chain: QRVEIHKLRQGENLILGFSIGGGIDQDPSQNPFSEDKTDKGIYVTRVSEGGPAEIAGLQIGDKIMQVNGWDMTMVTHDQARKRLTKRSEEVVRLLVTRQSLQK

[6] = biological target: T4, GST-ZO-3 PDZ domain 3 (Homo sapiens (Human)), O95049; assay: G' assay; note: key of the grades not given here
T4 chain: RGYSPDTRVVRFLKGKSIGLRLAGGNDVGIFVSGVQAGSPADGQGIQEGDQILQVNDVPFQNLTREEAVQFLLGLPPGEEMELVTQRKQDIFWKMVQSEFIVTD

[7] = biological target: T5, GST-DLG1 PDZ domain 2 (Homo sapiens), Q12959; assay: G' assay; note: key of the grades not given here
T5 chain: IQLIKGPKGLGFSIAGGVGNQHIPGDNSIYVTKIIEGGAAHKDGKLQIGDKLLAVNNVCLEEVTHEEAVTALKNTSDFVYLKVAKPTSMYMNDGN

[8] = biological target: T6, GST-KIAA0973 PDZ domain 1 (Homo sapiens (Human)), Q9Y2H9; assay: G' assay; note: key of the grades not given here
T6 chain: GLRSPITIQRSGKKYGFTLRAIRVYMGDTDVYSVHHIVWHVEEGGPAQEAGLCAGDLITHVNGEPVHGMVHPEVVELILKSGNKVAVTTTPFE

[9] = biological target: T7, GST-MUPP1 PDZ domain 10 (Homo sapiens (Human)), O75970; assay: G' assay; note: key of the grades not given here
T7 chain: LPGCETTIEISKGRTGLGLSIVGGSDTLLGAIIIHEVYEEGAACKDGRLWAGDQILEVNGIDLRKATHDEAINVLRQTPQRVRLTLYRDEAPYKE

[10] = biological target: T8, GST-INADL PDZ domain 8 (Homo sapiens (Human)), Q8NI35; assay: G' assay; note: key of the grades not given here
T8 chain: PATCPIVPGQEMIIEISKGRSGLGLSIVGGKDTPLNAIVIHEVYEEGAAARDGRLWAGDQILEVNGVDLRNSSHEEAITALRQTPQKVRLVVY

[11] = biological target: T9, GST-KIAA1526 PDZ domain 1 (Homo sapiens (Human)), Q9P202; assay: G' assay; note: key of the grades not given here
T9 chain: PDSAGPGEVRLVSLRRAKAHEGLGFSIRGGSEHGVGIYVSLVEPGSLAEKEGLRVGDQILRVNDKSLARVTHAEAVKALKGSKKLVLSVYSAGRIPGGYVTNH

[12] = biological target: GST-KIAA1634 PDZ domain 4 (Homo sapiens (Human)), Q5TCQ9; assay: G' assay; note: key of the grades not given here
Sequence of GST-KIAA1634 PDZ domain 4 (Homo sapiens (Human)), Q5TCQ9 (Q5TCQ9 844-945): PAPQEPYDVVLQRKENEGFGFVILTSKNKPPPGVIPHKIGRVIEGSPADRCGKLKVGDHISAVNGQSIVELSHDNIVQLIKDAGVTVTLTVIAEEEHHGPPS

[13] = biological target: T10, GST-NeDLG PDZ domain 3 (Mus musculus (Mouse)), P70175; assay: G' assay; note: key of the grades not given here
T10 chain: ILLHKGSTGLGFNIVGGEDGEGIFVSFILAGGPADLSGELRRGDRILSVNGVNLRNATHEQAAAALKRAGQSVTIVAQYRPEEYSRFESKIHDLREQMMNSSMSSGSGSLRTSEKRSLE

[14] = biological target: T11, GST-Syntrophin 1 alpha PDZ domain 1 (Homo sapiens (Human)), Q13424; assay: G' assay; note: key of the grades not given here
T11 chain: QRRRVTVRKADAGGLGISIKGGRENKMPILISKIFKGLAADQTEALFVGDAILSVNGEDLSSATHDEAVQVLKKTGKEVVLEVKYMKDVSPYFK

[15] = biological target: T12, GST-ERBIN PDZ domain 1 (Homo sapiens (Human)), Q96RT1; assay: G' assay; note: key of the grades not given here
T12 chain: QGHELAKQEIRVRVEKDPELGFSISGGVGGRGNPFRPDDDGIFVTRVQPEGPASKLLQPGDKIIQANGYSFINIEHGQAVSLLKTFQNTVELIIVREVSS

[16] = biological target: T13, GST-KIAA0380 PDZ domain 1 (Homo sapiens (Human)), O15085; assay: G' assay; note: key of the grades not given here
T13 chain: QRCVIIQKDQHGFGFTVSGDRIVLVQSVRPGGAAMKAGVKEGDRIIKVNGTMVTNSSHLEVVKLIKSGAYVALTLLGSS

[17] = biological target: GST-KIAA1634 PDZ domain 4 (Homo sapiens (Human)), Q5TCQ9; assay: G assay titration, PDZ 5 ug/ml
[18] = biological target: T12, GST-ERBIN PDZ domain 1 (Homo sapiens …); assay: G assay titration, PDZ 5 ug/ml
[19] = biological target: T1, GST-KIAA0807(S) PDZ domain 1 (Homo …); assay: G assay titration, PDZ 0.1 ug/ml
[20] = biological target: T14, GST-KIAA1719 PDZ domain 2 (Homo sapiens (Human)), Q9C0E4; assay: G' assay; note: key of the grades not given here
T14 chain: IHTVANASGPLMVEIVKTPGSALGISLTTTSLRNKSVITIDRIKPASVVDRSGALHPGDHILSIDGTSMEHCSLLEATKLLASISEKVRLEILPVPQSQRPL

[21] = biological target: GST-TAX IP2 PDZ domain 1 [GST: P08515]; assay: G' assay; note: key of the grades not given here
Sequence of GST-TAX IP2 PDZ domain 1 [GST: P08515] (P08515 whole entry, the tested form may be a part): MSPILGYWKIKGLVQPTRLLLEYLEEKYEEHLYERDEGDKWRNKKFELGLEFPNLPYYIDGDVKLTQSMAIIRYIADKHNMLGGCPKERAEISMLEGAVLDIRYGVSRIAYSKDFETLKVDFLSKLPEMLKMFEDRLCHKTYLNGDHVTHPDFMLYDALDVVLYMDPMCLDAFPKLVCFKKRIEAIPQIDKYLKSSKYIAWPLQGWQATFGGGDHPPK

[22] = biological target: GST-KIAA1634 PDZ domain 1 (Homo sapiens (Human)), Q5TCQ9; assay: G' assay; note: key of the grades not given here
Sequence of GST-KIAA1634 PDZ domain 1 (Homo sapiens (Human)), Q5TCQ9 (Q5TCQ9 401-502): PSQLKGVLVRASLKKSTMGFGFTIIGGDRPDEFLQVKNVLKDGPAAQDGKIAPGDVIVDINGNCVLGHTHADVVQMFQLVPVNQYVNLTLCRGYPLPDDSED

[23] = biological target: T15, GST-MINT1 PDZ domains 1, 2, Q02410; assay: G' assay; note: key of the grades not given here
T15 chain: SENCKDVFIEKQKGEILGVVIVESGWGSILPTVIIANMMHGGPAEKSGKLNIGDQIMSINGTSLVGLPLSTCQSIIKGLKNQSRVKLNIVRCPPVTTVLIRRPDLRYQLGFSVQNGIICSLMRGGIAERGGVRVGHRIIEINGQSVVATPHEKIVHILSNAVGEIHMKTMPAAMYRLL

[24] = biological target: T16, GST-KIAA1719 PDZ domain 5 (Homo sapiens (Human)), Q9C0E4; assay: G' assay; note: key of the grades not given here
T16 chain: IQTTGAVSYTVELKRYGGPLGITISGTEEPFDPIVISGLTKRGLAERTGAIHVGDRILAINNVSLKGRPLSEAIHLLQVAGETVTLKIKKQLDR

Sequence of GST-KIAA807 [GST: P08515] (P08515 whole entry, the tested form may be a part): as the sequence (P08515 whole entry, the tested form may be a part) above

## AGAVRTPLSQVNKVWDQSSV (modifications not checked) [CITRON protein]
[1]
  Classification: 4 A450 class
[2]
  Classification: 4 A450 class
[3]
  Classification: 2 A450 class
[4]
  Classification: 4 A450 class
[5]
  Classification: 5 A450 class
[6]
  Classification: 1 A450 class
[7]
  Classification: 2 A450 class
[8]
  Classification: 5 A450 class
[9]
  Classification: 1 A450 class
[10]
  Classification: 1 A450 class
[11]
  Classification: 1 A450 class
[12]
  Classification: 3 A450 class
[13]
  Classification: 3 A450 class
[14]
  Classification: 1 A450 class
[15]
  Classification: 4 A450 class
[16]
  Classification: 1 A450 class
[17]
  Kd: 8 µM
[18]
  Kd: 7 µM
[19]
  Kd: 1000 nM

## ERASSVYTRSTGEQEISVGL (modifications not checked) [CKR5 (HIV Co-receptor)]
[20]
  Classification: 1 A450 class
[5]
  Classification: 1 A450 class
[21]
  Classification: 1 A450 class
[22]
  Classification: 1 A450 class
[23]
  Classification: 1 A450 class
[24]
  Classification: 1 A450 class
